Data as given in PMC8649778.

Legend:
[1] = target: human IgG (human); assay: BLI
[2] = target: APRc_(110–231)(D140N)His, active site mutant of the soluble domain of APRc (UniProt Q92FY8); assay: shift of migration in nonreducing SDS-PAGE with Western blot

| Substance | Kd [1] [µM] | stoichiometry N [2] |
| --- | --- | --- |
| APRc_(110–231)His, soluble domain of APRc fused to a C-terminal His tag (from UniProt Q92FY8 110-231) (domain or fragment) | 12.6 |  |
| APRc_(110–231)(D140N)His, active site mutant of the soluble domain of APRc (from UniProt Q92FY8 110-231) (domain or fragment) |  | 2 |
